From publication PMC7618180 (2025)
Values belong to the binder of their own block, whether it stands above or below them.

B1: AtUBR4 ZZ domain (domain or fragment)
chain: SSVQYCCDGCSTVPILRRRWHCTVCPDFDLCEACYEVLDADRLPPPHTRDHPMTAIPI
B2: isolated ZZ-DZB domain of KCMF1 (domain or fragment)
chain: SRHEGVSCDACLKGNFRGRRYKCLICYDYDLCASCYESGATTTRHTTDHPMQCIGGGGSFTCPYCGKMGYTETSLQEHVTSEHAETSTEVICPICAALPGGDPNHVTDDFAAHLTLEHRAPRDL

Columns and labels:
Test in all cases: ITC
[1] = target: B2
^NRA peptide = target: ^NRA peptide
^NRR peptide = target: ^NRR peptide
^NLT peptide = target: ^NLT peptide
^NLT peptide, sequence (Q9P0J7 other isoform, or with tags, fused parts or gaps): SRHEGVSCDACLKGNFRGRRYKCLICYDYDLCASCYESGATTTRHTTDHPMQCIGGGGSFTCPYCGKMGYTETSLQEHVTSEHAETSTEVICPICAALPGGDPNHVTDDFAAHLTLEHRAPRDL

Kd [1]: 7 µM
Binder: RTGG [^NRT peptide (ITC)]

Binder: B1
Kd (^NRA peptide): 10 µM | Kd (^NRR peptide): 19 µM

Binder: B2
Kd (^NLT peptide): 16 µM
